Test results from PMC4100735.

Molecular target: TNF receptor-associated factor 2 (TRAF2) (human (endogenous in HEK-293T)) (UniProt Q12933)
Test: co-IP; lysates of HEK-293T cells transfected with Tyr52 or Cys52 FBXO7-EGFP and treated with MG-132 (5 uM, 24 h); 100 ug protein immunoprecipitated with mouse anti-TRAF2 antibody on protein G beads in IP lysis buffer (25 mM Tris-HCl pH 7.4, 150 mM NaCl, 1% NP-40, 1 mM EDTA, 5% glycerol); blot with anti-EGFP; normal IgG as negative control

Chain of UniProt Q12933 (Q12933 whole entry): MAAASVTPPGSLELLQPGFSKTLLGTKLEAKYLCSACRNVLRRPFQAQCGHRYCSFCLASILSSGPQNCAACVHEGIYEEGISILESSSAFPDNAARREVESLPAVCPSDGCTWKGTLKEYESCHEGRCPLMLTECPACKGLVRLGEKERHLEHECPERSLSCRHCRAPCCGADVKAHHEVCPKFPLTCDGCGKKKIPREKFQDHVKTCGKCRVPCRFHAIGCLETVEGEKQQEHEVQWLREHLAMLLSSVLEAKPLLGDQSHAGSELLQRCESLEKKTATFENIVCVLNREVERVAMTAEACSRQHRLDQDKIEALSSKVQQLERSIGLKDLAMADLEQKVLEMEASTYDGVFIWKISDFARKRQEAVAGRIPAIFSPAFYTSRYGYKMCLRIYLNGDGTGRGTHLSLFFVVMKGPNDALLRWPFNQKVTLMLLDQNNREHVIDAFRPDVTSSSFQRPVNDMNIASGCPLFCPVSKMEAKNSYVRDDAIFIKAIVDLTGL

FBXO7-TRAF2 interaction in co-IP, percent of Tyr52 FBXO7-EGFP: 367%
Substance: Cys52 FBXO7-EGFP (F-box only protein 7 Y52C variant, isoform 1, EGFP-tagged) (from UniProt Q9Y3I1-1 1-522) (natural protein)
